We go through two molecules from patent publication US20180118786A1 (published 2018).

Among the targets are thrombin (human, UniProt P00734 328-622); plasma kallikrein (human, UniProt P03952 20-638); factor XIa (human, UniProt P03951 19-625); uPA (human, UniProt P00749 21-431).
Holding throughout (experiment): enzyme inhibition
Test [1] concerns the target T1, human β-FXIIa (HFXIIAB; Molecular Innovations) (human, UniProt P00748 354-362; P00748 373-615).
T1 chain 1: NGPLSCGQR
T1 chain 2: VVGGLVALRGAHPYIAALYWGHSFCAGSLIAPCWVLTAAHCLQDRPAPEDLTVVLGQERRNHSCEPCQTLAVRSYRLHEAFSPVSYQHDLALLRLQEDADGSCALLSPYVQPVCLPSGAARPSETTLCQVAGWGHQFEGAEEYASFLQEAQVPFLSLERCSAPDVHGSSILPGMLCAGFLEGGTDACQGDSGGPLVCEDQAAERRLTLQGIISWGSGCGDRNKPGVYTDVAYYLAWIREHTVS

The target of the next test is T2, factor Xa (human, UniProt P00742 41-179; P00742 235-488).
T2 chain 1: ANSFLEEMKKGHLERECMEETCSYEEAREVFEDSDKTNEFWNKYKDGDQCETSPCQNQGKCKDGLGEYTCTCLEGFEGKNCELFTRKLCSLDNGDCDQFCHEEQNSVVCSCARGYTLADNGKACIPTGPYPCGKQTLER
T2 chain 2: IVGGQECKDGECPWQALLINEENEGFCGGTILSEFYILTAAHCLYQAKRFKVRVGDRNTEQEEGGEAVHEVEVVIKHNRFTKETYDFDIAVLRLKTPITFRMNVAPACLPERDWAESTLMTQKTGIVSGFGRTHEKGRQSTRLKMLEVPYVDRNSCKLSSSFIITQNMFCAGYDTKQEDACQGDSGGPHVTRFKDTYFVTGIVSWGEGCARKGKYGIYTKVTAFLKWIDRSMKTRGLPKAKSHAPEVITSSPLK

A further test deals with T3, factor VIIa (human, UniProt P08709 61-466).
T3 chain: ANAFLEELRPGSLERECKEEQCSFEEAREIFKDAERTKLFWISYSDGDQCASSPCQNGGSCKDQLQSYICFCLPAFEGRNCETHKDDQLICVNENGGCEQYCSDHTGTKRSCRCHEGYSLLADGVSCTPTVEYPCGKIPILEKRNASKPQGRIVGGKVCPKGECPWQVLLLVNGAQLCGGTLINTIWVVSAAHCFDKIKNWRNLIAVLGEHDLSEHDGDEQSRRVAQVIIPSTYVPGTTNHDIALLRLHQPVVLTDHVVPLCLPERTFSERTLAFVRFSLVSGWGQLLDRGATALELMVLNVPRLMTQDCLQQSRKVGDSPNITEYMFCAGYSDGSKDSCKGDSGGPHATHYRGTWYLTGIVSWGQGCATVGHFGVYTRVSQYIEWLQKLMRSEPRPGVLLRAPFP

Test [2] deals with human tissue-plasminogen activator (human, UniProt P00750 36-562).
The target in another test is T4, plasmin (human, UniProt P00747 97-810).
T4 chain: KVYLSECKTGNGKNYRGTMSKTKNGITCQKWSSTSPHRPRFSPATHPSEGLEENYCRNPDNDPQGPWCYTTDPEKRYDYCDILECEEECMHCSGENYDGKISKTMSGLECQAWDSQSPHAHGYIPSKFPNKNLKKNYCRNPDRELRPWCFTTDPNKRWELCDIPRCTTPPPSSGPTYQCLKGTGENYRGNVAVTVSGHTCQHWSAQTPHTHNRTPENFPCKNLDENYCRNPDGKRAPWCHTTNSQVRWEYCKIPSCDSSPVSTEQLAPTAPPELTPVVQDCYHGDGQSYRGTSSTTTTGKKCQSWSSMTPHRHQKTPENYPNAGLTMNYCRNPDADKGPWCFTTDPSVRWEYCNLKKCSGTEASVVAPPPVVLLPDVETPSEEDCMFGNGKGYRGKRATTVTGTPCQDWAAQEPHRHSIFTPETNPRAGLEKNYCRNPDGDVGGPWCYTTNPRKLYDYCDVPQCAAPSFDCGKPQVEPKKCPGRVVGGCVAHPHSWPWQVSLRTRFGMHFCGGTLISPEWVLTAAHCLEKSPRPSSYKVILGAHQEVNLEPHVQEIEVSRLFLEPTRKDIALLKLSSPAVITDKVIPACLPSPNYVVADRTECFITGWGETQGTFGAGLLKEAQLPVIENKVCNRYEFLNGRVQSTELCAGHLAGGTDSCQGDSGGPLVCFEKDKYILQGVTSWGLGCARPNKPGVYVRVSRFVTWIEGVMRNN

Starred links: 1 amine or outer side, 2 acyl side, 3 side chain; linkers in the order of their positions; H or OH if unused. Positions of bridges follow the written chain, without caps; N, C: chain ends. No end group written: not given here. TATA = O=C(CC[*:1])N1CN(C(=O)CC[*:2])CN(C(=O)CC[*:3])C1 Bounds are passed on as bounds.

human tissue-plasminogen activator, sequence (P00750 36-562): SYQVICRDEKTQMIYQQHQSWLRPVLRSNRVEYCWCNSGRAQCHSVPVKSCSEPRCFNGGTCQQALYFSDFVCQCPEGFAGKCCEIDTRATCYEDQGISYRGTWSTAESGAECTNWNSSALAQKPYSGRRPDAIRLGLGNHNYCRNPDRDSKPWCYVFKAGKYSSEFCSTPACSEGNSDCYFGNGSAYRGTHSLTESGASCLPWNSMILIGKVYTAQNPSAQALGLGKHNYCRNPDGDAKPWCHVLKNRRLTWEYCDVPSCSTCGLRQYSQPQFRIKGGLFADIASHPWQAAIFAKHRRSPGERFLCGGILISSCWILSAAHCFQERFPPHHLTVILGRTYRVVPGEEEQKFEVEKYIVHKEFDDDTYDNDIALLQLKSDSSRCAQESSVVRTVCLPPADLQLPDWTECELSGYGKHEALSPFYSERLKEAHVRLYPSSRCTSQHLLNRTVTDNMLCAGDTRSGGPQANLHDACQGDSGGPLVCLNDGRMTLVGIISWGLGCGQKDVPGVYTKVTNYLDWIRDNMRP
plasma kallikrein, sequence (P03952 20-638): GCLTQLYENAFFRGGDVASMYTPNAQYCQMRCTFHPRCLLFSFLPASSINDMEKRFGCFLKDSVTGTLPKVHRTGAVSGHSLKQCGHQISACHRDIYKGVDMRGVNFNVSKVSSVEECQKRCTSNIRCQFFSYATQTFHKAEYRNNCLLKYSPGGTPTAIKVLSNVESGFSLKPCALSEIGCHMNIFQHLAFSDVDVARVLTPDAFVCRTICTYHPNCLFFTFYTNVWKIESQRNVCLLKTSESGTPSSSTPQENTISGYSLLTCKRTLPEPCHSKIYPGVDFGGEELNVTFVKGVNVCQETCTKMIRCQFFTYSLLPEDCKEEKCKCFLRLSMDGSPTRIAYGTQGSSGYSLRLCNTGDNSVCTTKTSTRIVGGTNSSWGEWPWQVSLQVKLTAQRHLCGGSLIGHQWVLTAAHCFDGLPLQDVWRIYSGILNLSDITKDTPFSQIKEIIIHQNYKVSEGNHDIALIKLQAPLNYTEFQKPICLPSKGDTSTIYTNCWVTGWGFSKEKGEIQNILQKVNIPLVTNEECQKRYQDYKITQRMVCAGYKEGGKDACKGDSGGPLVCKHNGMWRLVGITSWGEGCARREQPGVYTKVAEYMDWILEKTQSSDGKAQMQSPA

B1: peptide 65 (FXII618, Arg1 to valine) (peptide)
peptide: VCFRLPCRQLRCR-NH2
modifications: linker 2-7-12 via TATA; N-terminus assumed
SMILES: CC(C)C[C@@H]1NC(=O)[C@H](CCC(N)=O)NC(=O)[C@H](CCCNC(=N)N)NC(=O)[C@@H]2CSCCC(=O)N3CN(CN(C3)C(=O)CCSC[C@H](NC(=O)[C@@H](N)C(C)C)C(=O)N[C@@H](Cc3ccccc3)C(=O)N[C@@H](CCCNC(=N)N)C(=O)N[C@@H](CC(C)C)C(=O)N3CCC[C@H]3C(=O)N2)C(=O)CCSC[C@@H](C(=O)N[C@@H](CCCNC(=N)N)C(N)=O)NC(=O)[C@H](CCCNC(=N)N)NC1=O
One may read the Ki as a dissociation constant, usually derived from enzyme kinetics or from competition with a known ligand. High values mean a looser hold on the target, low ones a stronger hold on the target. Consider B1, for which the Ki in [1] stood at 0.287 µM.

H-RCFRLPCRQLRCR-NH2 (linker 2-7-12 via TATA) [FXII618]: the Ki (in the test with thrombin; with factor Xa; with plasma kallikrein; with factor VIIa; with factor XIa; in test [2]) was greater than 50 µM throughout. Also, the Ki with uPA and with plasmin was greater than 50 µM each time.
